The nature of this data set: yeast display, Sf9 membrane polyspecificity reagent, FACS + sequencing; frameworks hold sequencing errors. In a few lines:
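A nanobody's polyreactivity label depends on the gate it was sorted from. Yeast display cells were stained with 10% biotinylated, detergent-solubilized Sf9 membrane reagent for 1 hour at 4 °C, enriched on streptavidin microbeads and sorted by FACS. The low and high (top ~1%) gates were set on anti-HA fluorescence for expression and streptavidin fluorescence for reagent binding.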
In the case of “QVQLVESGGGLVQAGGSLRLSCAASGFIFDAYAMGWYRPAPGKEREFVAGISIGGRTNYADSVKGRFTISRDNAKNTVYLQMNSLKPEDSAVYYCAARNYRYYYGSYFRGPITNYEYWGQGTQVTVSS”, the “polyreactivity (PSR sort gate)” value is “low polyreactivity”. As for “QDQIVYSGGGLVQAGGSLRLSCAASVRTFYRYDLGWYIQAPGKESELVAAISYSGASTYYADSVKGRFTISRDIAKNTVYLQMNSLKPEDTAVYYCAARYHGRDPRQIRYGYWGQGTQVTVSS”, the entry is “high polyreactivity”. On to “QVQLVESGGGLVQAGGSLRLSCAASGSTFHLNAMGWYRQAPGKERELVAAISWDGSSTSYADSVKGRFTISRDNANNTVYLQMNSLKPEDTAVYYCAADDTLDRVPTTFIDGSPGYGYWGQGTQVTVSS”, for which the “polyreactivity (PSR sort gate)” value was “low polyreactivity”.

Consider “QVQLVESGGGLVQAGGSLRLSCAASGSTFVENAMGWYRQAPGKERELVAAITSSGGSTYYADSVKGRFSNSRDNAMNTVYLQMNSLKPEDTSVDYCGVDYIYDDAYNYWGQGTQVTVSS”, for which the “polyreactivity (PSR sort gate)” value is recorded as “high polyreactivity”. With “QVQLVESGGGLVQAGGILRLSCAASGSTFGENAMGWYRQSPGKERELVAAISRASSTDYADSVKGRFTISRDNAKNTVYLQMNSLKPEDTAVYYCAVSIFGSFNYDFYSWGQGTQVTVSS” the entry was “low polyreactivity”; with “QVQLLESGGGLVQAGGSLRLSCAASGNTFYPNAMGWYRPAPGKETELVAAISSSGGSTYYADSVKGRFTISRDNAKNTVYLQMKSLNPEDTAVYYCASEFDYPLSGEYYYWGKGTQVTVSS”, “high polyreactivity”; with “QVQLVESGGGLVQAGGSLRLSCAASGFIFPRYAMGWSRQRPGKESELVAAISRSGGITRYADSVKGRFTISRDNAKNTVYLQRNSLKPEDTAVYYCAAYIQGWVTAEWVRDDYWGKGTQVTVSS”, “high polyreactivity”. As for “QVQLVESGVGLVQAGGSLRLSCAASGRTFRPYALGWYRQAPGNERELVAAIDSGGSTYADSVKGRFTISRDNAKTTVYLQMNSLKPEDTAVYYSAAVTQTAWLWYGYWGQGTQVTVSS”, the entry is “low polyreactivity”. As to “QVQLVESGGGLVQAGCSHSLSCAASGSIFWNNAIGSFRQAPVKEREFVAGITGRGGSTYYADSVKGRFTISRDNAKNTVYLQMNSLKPEDTEVYYCATRYLVYRGKYDYWGQGTQVTVSS”, the “polyreactivity (PSR sort gate)” value is on record as “high polyreactivity”. As for “QVQLVESGGGLVQAGGSLRISCAASGSIFGYNTMGWYRQAPGKERELVAAIRGSDSSTYYADSVKGRFTISRDNAKNTVYLQMNSVIPEDTAVYYCAAKYYWGQGTQVTVSS”, the entry is “high polyreactivity”. With “QVQLVESGGGLVQAGGSLRLSCAASGRTFYSYAMGWYRQAPGKERELVAGITWSGTSTYYADSVKGRFTISRDNAKNTVYLQMNSLKPEDTAVYYCAADSIQYTARPYDYWGQGTQVTVSS”, the “polyreactivity (PSR sort gate)” value is “low polyreactivity”. With “QVQLVESGGGLVQAGGSLRLSCAASGRTFSQYAMGWYRQAPRKERELVAAISWGGRTYYADSVKGRFTISRDNAKNTVYLQMNSLKPEDTAVYYCAASSKLTYYEENHWGQGTQVTVSS” the entry was “high polyreactivity”; with “QVQLVESGGGLVQAGGSLRLSCAASGSTFAWYAMGWYRQAPGKERELVASIRWGGGSTYYADSVKGRFTISRDNAKNTVFLQMHSLKPEDTAVYYCAAYFGYTVGRYNYWGQGTQVTVSS”, “high polyreactivity”.

With “QVQLVESGGGLVQAGRSLRLTCAASGRIFTPYAMGWYRQAPGTERELVATITLSGGSTYYADSVKGRFTISRDYAKNTVYLQMNSLKPEDTAVYYCNKDTHLHVVDYRTGYDCWGQGTQVTVSS”, the “polyreactivity (PSR sort gate)” value was “low polyreactivity”. With “QVQLVESGGGLVQAGGRLRLSCAASGYTFPLYARGWYRQAPGKERELVADINIGGASSYYADSVKGRVTISRDNAKKTVYLQMNSLKPEDTAVYYCAKEYYDGYFPTFDYDYWGQGTQVTVSS” the entry was “low polyreactivity”; with “QVQLVESGGGLVQAGGSLRLSCAASGRIFRGNTMGWYRQAPGKERELVAAITRGGSTSYADSVKGRFTISRDNAKNTVNLQMNSLKPEDTAVYYCATRTHGEGTRRDSWGQGTQVTVSS”, “low polyreactivity”.

“QVQLVESGGGLVQAGGSLRLSCAASGYTLNIYGMGWYRQATGKERELVAAISRGGSTNYADSVKGRFTISRDNAKNTVYLQMNSLKPEDTAVYYCAKVYNYRSVRYYYWGQGTQVTVSS”: the “polyreactivity (PSR sort gate)” value was “high polyreactivity”. With “QVQLVESGGGLVEEGGSLRLSCAASGSIFYRNDMGWYRQAPGKERELVAAISWSGGRTYYADSVKGRFTISRDNAKNTVYLQMNSLKPEDTAVYYCAAFRHRQSSDNGYDYWGQGTQVTVSS” the entry was “high polyreactivity”. With “QVQLVESGGGLVQAGGSLRLRCAASGIFAFYAMGWYRQAPGKERELVAGIDDGGSTDYADSVKGRFTISRDNAKNTVYLQMNSLKPEDTAVYYCAATERLEVWSRPYVWVTLDYRGQGTQVTVSS” the entry was “low polyreactivity”. For the sequence “QVQLVDSGGGLVQAGGSLRLSCAASGYIFGDYVMGWYRQAPGKERELVASISSSGDTNYADSVKGRFTISRDNAMNTVYLQMNSLKPEDTAVYYCAAVDWIGRVHGKPWGGDYWGQGTQVTVSS”, the “polyreactivity (PSR sort gate)” value was “low polyreactivity”. As to “QVQLVESGGGLVQAGGSLRLSCAASGLIFRPYAMGWYRQAPGKERELVAAISSSGGSTYYADSVKGRFTISRDNAKNTVYLQMNSLKPEDTAVYYCATYFARGYNSWGQGTQVTVSS”, the “polyreactivity (PSR sort gate)” value was “high polyreactivity”. “QVQLVESGGGLVQAGGSLRLSCAASGSIFWYYAMGWYRQAPGKERELVAAISRSGGSTYYADSVKGRFTISRDNAKNTVYLQMNSLKPEDTAVYYCAAGYSSLRRFGVYYWGQGTQVTVSS”: the “polyreactivity (PSR sort gate)” value was “high polyreactivity”. As for “HVQLVESGGGLVQAGGSLRLSCAASGRILRRNAMGWYRQAPGKEREFVAAITWRGGSTYYADSVKGRFTISRDNAKNTVYLQMNSLKPEDTAVYYCAADTYSVEYVLPYYYWGQGTQVTVSS”, the “polyreactivity (PSR sort gate)” value is “high polyreactivity”.

On to “QVQLVESGGGLVQAGGSLRLSCAASGTFKWYAMGWYRQAPGKERELVAVISSSGGTTSYADSVKGRFTITRDNAKNTVYLQMNSLKPEDTAVYYCNRVWSTSMDYWGQGTQVTVSS”, for which the “polyreactivity (PSR sort gate)” value is recorded as “high polyreactivity”. Consider “QVQLVESGGGLVQAGGSLRLSCAASGSTFRIYAMGWYRQAPGKERELVATITSGSSTYADSVKGRFTISRDNAKNTVYLQMNSLKPEDTAVYYCAARRKGGHISYGYDYWGQGTQVTVSS”, for which the “polyreactivity (PSR sort gate)” value is given as “high polyreactivity”. For “QVQLVESGGGLVQSGGSLRLSCAASGFTFRFYAMGWYSQAPGKEREMVAAITSSGGSTFYADSVKGRFTISRDNAKNTVYLQMNSLKPEDTAVYYCAASVGREVGWGQGTQVTVSS”, the “polyreactivity (PSR sort gate)” value was “high polyreactivity”.

As for “QVQLQESGGGLVQAGGSLRLSCAASGTIYWLWAMGWYCLAPGKERELVASISSGGTTYHADSVKGRFTISRDNAKYSVYLQMNSLKPEDTAVFYSAAFYVASAKLGYWGQGSQVTVSS”, the “polyreactivity (PSR sort gate)” value is on record as “low polyreactivity”. With “QVQLVESGGGLVQAGGSLRLSCAASGIIFDDYAMGWYRQAPGKERELVAAIRSGVSTNYADSVKGRFTISRDNAKNTVYLQMNSLKPEDTAVYYGAARNTAPYFTEYDYWGQGTQVTVSS” the entry was “low polyreactivity”. As to “QVQIVESGGGLVQAGGSLRLSCAASGFIFGQYAMGWYRQAPGKERELVAAISSVGTTNYADSVKGRFTISRDNAKNTVYLQMNSLKPEDTAVYYCNAPVFYYWDYSYFPYEVDYWGQGTQVTESS”, the “polyreactivity (PSR sort gate)” value is given as “low polyreactivity”.

On to “QVQLVESGGGLVQAGGSLRLSCAASGSTSTYYAMGWYRQAPWKERELVAANTLGAGRTYADSEKGRFTISRDNAKNTVSLQMNSLKPEDTAVYYCAADGYISVNYLRYDYWGQGTQVTVSS”, for which the “polyreactivity (PSR sort gate)” value is given as “low polyreactivity”.

Values taken from the nanobody polyreactivity screen of Harvey et al. (2022).
